From patent publication US20050208021

Legend:
[1] = system: T1, PhiC31 integrase mutant 1C1 (Bacteriophage Phi-C31); test: cell_activity; conditions: attB donor integration into 293 genome
T1 sequence: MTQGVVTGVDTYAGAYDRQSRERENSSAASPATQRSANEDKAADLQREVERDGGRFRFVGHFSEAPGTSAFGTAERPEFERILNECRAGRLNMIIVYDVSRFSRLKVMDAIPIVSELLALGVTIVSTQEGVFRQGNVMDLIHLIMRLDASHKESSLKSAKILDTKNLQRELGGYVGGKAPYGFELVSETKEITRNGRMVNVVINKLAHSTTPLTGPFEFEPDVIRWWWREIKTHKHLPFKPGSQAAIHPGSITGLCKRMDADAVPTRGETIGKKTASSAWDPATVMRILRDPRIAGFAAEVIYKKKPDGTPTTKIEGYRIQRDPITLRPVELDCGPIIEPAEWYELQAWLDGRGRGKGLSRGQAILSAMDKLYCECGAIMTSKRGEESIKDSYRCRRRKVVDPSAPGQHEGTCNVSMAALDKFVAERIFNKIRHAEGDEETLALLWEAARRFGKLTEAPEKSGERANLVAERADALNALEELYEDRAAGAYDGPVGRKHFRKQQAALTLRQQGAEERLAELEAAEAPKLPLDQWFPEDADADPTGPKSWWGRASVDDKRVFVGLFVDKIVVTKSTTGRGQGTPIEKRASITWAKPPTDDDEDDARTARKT

[2] = system: T2, PhiC31 integrase wild type (Bacteriophage Phi-C31); test: cell_activity
T2 sequence: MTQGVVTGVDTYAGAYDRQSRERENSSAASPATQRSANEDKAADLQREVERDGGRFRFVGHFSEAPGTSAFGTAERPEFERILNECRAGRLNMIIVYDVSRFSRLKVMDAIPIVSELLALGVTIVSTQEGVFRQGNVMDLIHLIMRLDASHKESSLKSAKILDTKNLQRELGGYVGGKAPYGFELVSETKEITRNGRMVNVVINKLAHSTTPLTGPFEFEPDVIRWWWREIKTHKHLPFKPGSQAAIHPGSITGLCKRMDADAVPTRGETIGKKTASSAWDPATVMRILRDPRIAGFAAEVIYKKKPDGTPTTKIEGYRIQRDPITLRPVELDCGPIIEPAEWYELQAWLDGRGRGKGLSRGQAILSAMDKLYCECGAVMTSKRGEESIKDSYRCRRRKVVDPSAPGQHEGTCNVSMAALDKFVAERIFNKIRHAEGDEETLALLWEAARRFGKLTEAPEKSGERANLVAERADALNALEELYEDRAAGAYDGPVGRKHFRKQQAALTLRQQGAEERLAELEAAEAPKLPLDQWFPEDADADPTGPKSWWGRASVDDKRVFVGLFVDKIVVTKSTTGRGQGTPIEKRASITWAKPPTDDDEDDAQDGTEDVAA

CGATGTAGGTCACGGTCTCGAAGCCGCGGTGCGGGTGCCAGGGCGTGCCCTTGGGCTCCCCGGGCGCGTACTCCACCTCACCCATCTGGTCCATCATGATGAACGGGTCGAGGTGGCGGTAGTTGATCCCGGCGAACGCGCGGCGCACCGGGAAGCCCTCGCCCTCGAAACCGCTGGGCGCGGTGGTCACGGTGAGCACGGGACGTGCGACGGCGTCGGCGGGTGCGGATACGCGGGGCAGCGTCAGCGGGTTCTCGACGGTCACGGCGGGCATGTCGA (double strand) [PhiC31 attB full length]
activity (fold over background colonies) [1]: > 10

PhiC31 attB/attP in pBCPB+
activity (% white colonies) ([2]; Drosophila S2 cells, +/-11.7, background 1.7): 47.8

mouse pseudo attP mpsL1
activity (% haploid genomes integrated) ([2]; mouse liver, partner attB, qPCR, +/-0.89): 1.8
